Results taken from US20090068637A1 (published 2009).

Experiments:
[1] = molecular target: T1, HA of H5N1 virus strain HN2 (avian influenza virus H5N1); assay: cell-based or functional assay
[2] = molecular target: T2, HA of H5N1 virus strain MB2 (avian influenza virus H5N1); assay: cell-based or functional assay
[3] = molecular target: T3, HA of H5N1 virus strain YN1 (avian influenza virus H5N1); assay: cell-based or functional assay
[4] = molecular target: T4, HA of H5N1 virus strain VTM1.1 (avian influenza virus H5N1); assay: cell-based or functional assay
[5] = molecular target: T5, HA of H5N1 virus strain IDN2 (avian influenza virus H5N1); assay: cell-based or functional assay
[6] = molecular target: T6, HA of H5N1 virus strain IDN3 (avian influenza virus H5N1); assay: cell-based or functional assay
[7] = molecular target: T7, HA of H5N1 virus strain MIX1 (avian influenza virus H5N1); assay: cell-based or functional assay
[8] = molecular target: T8, HA of H5N1 virus strain GD1 (avian influenza virus H5N1); assay: cell-based or functional assay
[9] = molecular target: T9, HA of H5N1 virus strain GD2 (avian influenza virus H5N1); assay: cell-based or functional assay
[10] = molecular target: T10, HA of H5N1 virus strain VTM3 (avian influenza virus H5N1); assay: cell-based or functional assay
[11] = molecular target: T11, HA of H5N1 virus strain VTM2 (avian influenza virus H5N1); assay: cell-based or functional assay
[12] = molecular target: T12, HA of H5N1 virus strain VTM4 (avian influenza virus H5N1); assay: cell-based or functional assay
[13] = molecular target: T13, HA of H5N1 virus strain MIX3 (avian influenza virus H5N1); assay: cell-based or functional assay
[14] = molecular target: T14, HA of H5N1 virus strain IDN4 (avian influenza virus H5N1); assay: cell-based or functional assay
[15] = molecular target: T15, HA of H5N1 virus strain VNM2.1 (avian influenza virus H5N1); assay: cell-based or functional assay
[16] = molecular target: T16, HA of H5N1 virus strain GD3 (avian influenza virus H5N1); assay: cell-based or functional assay
[17] = molecular target: T17, HA of H5N1 virus strain MB1 (avian influenza virus H5N1); assay: cell-based or functional assay
[18] = molecular target: T18, HA of H5N1 virus strain HN1 (avian influenza virus H5N1); assay: cell-based or functional assay
[19] = molecular target: T19, HA of H5N1 virus strain IDN1.1 (avian influenza virus H5N1); assay: cell-based or functional assay
[20] = molecular target: T20, HA of H5N1 virus strain IDN5 (avian influenza virus H5N1); assay: cell-based or functional assay
[21] = molecular target: T21, HA of H5N1 virus strain MIX2 (avian influenza virus H5N1); assay: cell-based or functional assay
fusion protein HBc-D123 = molecular target: T22, fusion protein HBc-D123 (HBV); assay: ELISA, fusion protein coated at 10 ug/ml
T22 chain: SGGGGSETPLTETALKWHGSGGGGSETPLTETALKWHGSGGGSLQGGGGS

fusion protein HBc-D125 = molecular target: T23, fusion protein HBc-D125 (HBV); assay: ELISA, fusion protein coated at 10 ug/ml
T23 chain: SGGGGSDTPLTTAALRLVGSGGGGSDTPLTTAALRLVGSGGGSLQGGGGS

fusion protein HBc-124 = molecular target: T24, fusion protein HBc-124 (HBV); assay: indirect ELISA, fusion protein coated at 10 ug/ml, 12 mAb tested
T24 chain: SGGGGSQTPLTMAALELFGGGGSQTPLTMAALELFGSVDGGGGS

fusion protein HBc-128 = molecular target: T25, fusion protein HBc-128 (HBV); assay: as above
T25 chain: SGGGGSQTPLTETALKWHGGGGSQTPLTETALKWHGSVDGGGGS

fusion protein HBc-122 = molecular target: T26, fusion protein HBc-122 (HBV); assay: as above
T26 chain: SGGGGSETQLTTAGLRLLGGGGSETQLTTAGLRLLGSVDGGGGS

[22] = molecular target: T1, HA of H5N1 virus strain HN2; assay: cell-based or functional assay; remark: listed apart in the source
[23] = molecular target: T2, HA of H5N1 virus strain MB2; assay: cell-based or functional assay; remark: listed apart in the source
[24] = molecular target: T3, HA of H5N1 virus strain YN1; assay: cell-based or functional assay; remark: listed apart in the source
[25] = molecular target: T4, HA of H5N1 virus strain VTM1.1; assay: cell-based or functional assay; remark: listed apart in the source
[26] = molecular target: T5, HA of H5N1 virus strain IDN2; assay: cell-based or functional assay; remark: listed apart in the source
[27] = molecular target: T6, HA of H5N1 virus strain IDN3; assay: cell-based or functional assay; remark: listed apart in the source
[28] = molecular target: T7, HA of H5N1 virus strain MIX1; assay: cell-based or functional assay; remark: listed apart in the source
[29] = molecular target: T8, HA of H5N1 virus strain GD1; assay: cell-based or functional assay; remark: listed apart in the source
[30] = molecular target: T9, HA of H5N1 virus strain GD2; assay: cell-based or functional assay; remark: listed apart in the source
[31] = molecular target: T10, HA of H5N1 virus strain VTM3; assay: cell-based or functional assay; remark: listed apart in the source
[32] = molecular target: T11, HA of H5N1 virus strain VTM2; assay: cell-based or functional assay; remark: listed apart in the source
[33] = molecular target: T12, HA of H5N1 virus strain VTM4; assay: cell-based or functional assay; remark: listed apart in the source
[34] = molecular target: T13, HA of H5N1 virus strain MIX3; assay: cell-based or functional assay; remark: listed apart in the source
[35] = molecular target: T14, HA of H5N1 virus strain IDN4; assay: cell-based or functional assay; remark: listed apart in the source
[36] = molecular target: T15, HA of H5N1 virus strain VNM2.1; assay: cell-based or functional assay; remark: listed apart in the source
[37] = molecular target: T16, HA of H5N1 virus strain GD3; assay: cell-based or functional assay; remark: listed apart in the source
[38] = molecular target: T17, HA of H5N1 virus strain MB1; assay: cell-based or functional assay; remark: listed apart in the source
[39] = molecular target: T18, HA of H5N1 virus strain HN1; assay: cell-based or functional assay; remark: listed apart in the source
[40] = molecular target: T19, HA of H5N1 virus strain IDN1.1; assay: cell-based or functional assay; remark: listed apart in the source
[41] = molecular target: T20, HA of H5N1 virus strain IDN5; assay: cell-based or functional assay; remark: listed apart in the source
[42] = molecular target: T21, HA of H5N1 virus strain MIX2; assay: cell-based or functional assay; remark: listed apart in the source

B1: monoclonal antibody 8H5 (antibody, V domains shown)
VH: QVQLQQSGAELMKPGASVKISCKATGYTFSNYWIEWIKQRPGHGLEWIGEILPGSDRTNYNGKFKGKATFTADTSSNTAHMQLSSLTSEDSAVYYCANRYDGYYFGLDYWGQGTSVAVSS
VL: EIVLTQSPAIMSASLGEKVTMSCRASSSVNFVYWYQQRSDASPKLLIYYSSNLAPGVPPRFSGSGSGNSYSLTISGLEGEDAATYYCQHFTSSPYTFGGGTNLEIKR
HI titer [1]: 3200 titer | HI titer [2]: 6400 titer | HI titer [3]: 3200 titer | HI titer [4]: 12800 titer | HI titer [5]: 1600 titer | HI titer [6]: 3200 titer | HI titer [7]: 12800 titer | HI titer [8]: 12800 titer | HI titer [9]: 12800 titer | HI titer [10]: 6400 titer | HI titer [11]: 6400 titer | HI titer [12]: 1600 titer | HI titer [13]: 12800 titer | HI titer [14]: 12800 titer | HI titer [15]: 6400 titer | HI titer [16]: 12800 titer | HI titer [17]: 3200 titer | HI titer [18]: 12800 titer | HI titer [19]: 12800 titer | HI titer [20]: 6400 titer | HI titer [21]: 6400 titer | binding result (fusion protein HBc-D123): binds | binding result (fusion protein HBc-D125): binds | binding result (fusion protein HBc-124): binds | binding result (fusion protein HBc-128): binds | binding result (fusion protein HBc-122): binds | Neutralization titer [22]: 6400 titer | Neutralization titer [23]: 12800 titer | Neutralization titer [24]: 6400 titer | Neutralization titer [25]: 1600 titer | Neutralization titer [26]: 6400 titer | Neutralization titer [27]: 12800 titer | Neutralization titer [28]: 12800 titer | Neutralization titer [29]: 12800 titer | Neutralization titer [30]: 12800 titer | Neutralization titer [31]: 12800 titer | Neutralization titer [32]: 800 titer | Neutralization titer [33]: 1600 titer | Neutralization titer [34]: 12800 titer | Neutralization titer [35]: 12800 titer | Neutralization titer [36]: 3200 titer | Neutralization titer [37]: 12800 titer | Neutralization titer [38]: 6400 titer | Neutralization titer [39]: 12800 titer | Neutralization titer [40]: 12800 titer | Neutralization titer [41]: 6400 titer | Neutralization titer [42]: 6400 titer

B2: monoclonal antibody 2F2 (antibody, V domains shown)
VH: QVQLKESGPGLVAPSQRLSITCTVSGFSLTGYGVHWIRQSPGKGLEWLGMIWAEGRTDYNSVLKSRLSINKDNSRSQVFLEMNSLQTDDTARYYCAREVITTEAWYFDVWGQGTSVTES
VL: DIVMTQSPATLSVTPGDRVSLSCRASQSISDYLYWYQQKSHESPRLLIKYASQSISGIPSRFSGSGSGSDFTLTINSVEPEDVGMYYCQNGHTFPLTFGAGTKLEIKR
HI titer [1]: 1600 titer | HI titer [2]: 6400 titer | HI titer [3]: 800 titer | HI titer [4]: 12800 titer | HI titer [5]: 800 titer | HI titer [6]: 1600 titer | HI titer [7]: < 100 titer | HI titer [8]: 12800 titer | HI titer [9]: 12800 titer | HI titer [10]: 12800 titer | HI titer [11]: 3200 titer | HI titer [12]: 6400 titer | HI titer [13]: 12800 titer | HI titer [14]: 12800 titer | HI titer [15]: 200 titer | HI titer [16]: 12800 titer | HI titer [17]: < 100 titer | HI titer [18]: 6400 titer | HI titer [19]: 12800 titer | HI titer [20]: 12800 titer | HI titer [21]: < 100 titer | Neutralization titer [22]: 12800 titer | Neutralization titer [23]: 12800 titer | Neutralization titer [25]: 1600 titer | Neutralization titer [26]: 12800 titer | Neutralization titer [28]: 100 titer | Neutralization titer [29]: 12800 titer | Neutralization titer [30]: 12800 titer | Neutralization titer [31]: 12800 titer | Neutralization titer [32]: 12800 titer | Neutralization titer [33]: 12800 titer | Neutralization titer [34]: 12800 titer | Neutralization titer [35]: 12800 titer | Neutralization titer [36]: 12800 titer | Neutralization titer [37]: 12800 titer | Neutralization titer [39]: 12800 titer | Neutralization titer [40]: 12800 titer | Neutralization titer [41]: 12800 titer | Neutralization titer [42]: 100 titer
